Results as given in article PMC2148113 (The Journal of Cell Biology, 1999).

Tests used:
[1] = biological target: Flag-tagged Nodal precursor (mouse); assay: non-reducing SDS-PAGE with immunoblot
[2] = biological target: the molecule itself; assay: non-reducing SDS-PAGE with immunoblot

Which stoichiometry N [1] does the source give for “Flag-tagged Nodal precursor (natural protein)” here?
Its stoichiometry N is 2.

B1: mature MycBMP4 (domain or fragment, mouse, UniProt P21275 293-408, looked up)
chain: SPKHHPQRSRKKNKNCRRHSLYVDFSDVGWNDWIVAPPGYQAFYCHGDCPFPLADHLNSTNHAIVQTLVNSVNSSIPKACCVPTELSAISMLYLDEYDKVVLKNYQEMVVEGCGCR
For B1, which “stoichiometry N” value [2] is on record?
The value was 2.
